# Reference: patent publication US20260234276A1 (DOMAIN THERAPEUTICS, published 2026)
# Where “and” joins values, the source holds several entries; their conditions need not be identical. Identical values can stand only once.
# B1: 3-46 (antibody, V domains shown)
# VH: EVQLVETGGGLVQPKGSLKLSCAASGFTFNTNAMNWVRQAPGKGLEWVARIRSKSNYYATYYADSVKDRFTISRDDSQSMLYLQMNNLKTEDTAMYYCVRGREMGNYYSMDYWGQGTSVTVSS
# VL: DIVMTQAAPSVPVTPGESVSISCRSSKSLLHSNGNTYLYWFLQRPGQSPQLLIYRMSNLASGVPDRFSGSGSGTAFTLRISRVEAEDVGVYYCMQHLEYPFTFGSGTKLEIK
# B2: 3-81 (antibody, human IgG1, kappa, V domains shown)
# VH: QVQLQQSGPEVVKPGASVKVSCKTSGYTFTEYTIHWVRQSHGQSLEWVGGINPNNGNTRYDQKFKGRVTITIDKSSSTAYMELRSLTSEDTAVYYCARVARSSGSGPYAMDYWGQGTTVTVSS
# VL: DVVMTQSPLSLPVTLGDQASISCRCSQSLLHTNGDTYLHWYLQRPGQSPRLLIYKVSNRFSGVPDRFSGSGSGTDFTLKISRVEAEDVGVYFCSQSTHVPYTFGGGTKVEIKR
# notes: humanized, human IgG1 kappa
# B3: 3-43 (antibody, V domains shown)
# VH: QVQLQQPGAELVKPGASVKMSCKATGYTFTGYNMHWVKQTPGQGLEWIGAISPGKGDTSYNLKFKGKATLTTDKSSSTAYMQLSSLTSADSAVYYCARSGGTPFAYWGQGTLVTVSA
# VL: DVVMTQTPLSLPVSLGDQASISCRSSQSLVHSNGDTYLYWYLQKPGQSPKLLIYKVSNRFSGVPDRFSGSGSGTDFTLKINRVEAEDLGVYFCSQSTHVPYTFGGGTKLEIK
# B4: 3-77 (antibody, human IgG1, kappa)
# heavy: not shown
# light: DIVMTQAAPSLSVTPGESASISCTSSKSLLHSNGNTYLYWFLQKPGQSPQLLIYRMSNLASGVPDRFSGSGSGTAFTLKISRVEAEDVGVYYCMQHREYPFTFGSGTKLEIKRTVAAPSVFIFPPSDEQLKSGTASVVCLLNNFYPREAKVQWKVDNALQSGNSQESVTEQDSKDSTYSLSSTLTLSKADYEKHKVYACEVTHQGLSSPVTKSFNRGEC
# notes: humanized, human IgG1 kappa
# Experiments:
# human CCR8 [1] = biological target: T1, human CCR8 (human, UniProt P51685 1-355); assay: cell-based or functional assay
# human CCR8 [2] = biological target: T1, human CCR8; assay: competition flow cytometry on hCCR8 transfected CHO cells; blocked ligand CCL1-AF647 [cont.]
# human CCR8 [3] = biological target: T1, human CCR8; assay: cell-based or functional assay; remark: listed apart in the source
# human CCR8 [4] = biological target: T1, human CCR8; assay: cell-based or functional assay; remark: listed apart in the source
# pm6 = pm6 (human, sulfated tyrosines at Y16 and Y17); assay: ELISA on coated peptide [cont.]
# pm6 (human, sulfated tyrosines at Y16 and Y17), sequence (peptide, as listed by the source): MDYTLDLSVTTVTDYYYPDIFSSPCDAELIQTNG
# Outline: (§1)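 In this direct ELISA, CCR8-related peptides coated at 500 ng/mL are probed with anti-CCR8 mAbs (1 μg/mL, also 1/10 dilution; 90 min, room temperature). Read-out is TMB optical density.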
# pm3 = pm3 (human, sulfated tyrosine at Y17); assay: ELISA on coated peptide [cont.]
# pm3 (human, sulfated tyrosine at Y17), sequence (peptide, as listed by the source): as above
# Outline: as §1
# pm8 = pm8 (human, sulfated tyrosines at Y15, Y16 and Y17); assay: ELISA on coated peptide [cont.]
# pm8 (human, sulfated tyrosines at Y15, Y16 and Y17), sequence (peptide, as listed by the source): as above
# Outline: as §1
# pm5 = pm5 (human, sulfated tyrosines at Y15 and Y17); assay: ELISA on coated peptide [cont.]
# pm5 (human, sulfated tyrosines at Y15 and Y17), sequence (peptide, as listed by the source): as above
# Outline: as §1
# human CCR8 [5] = biological target: T1, human CCR8; assay: flow cytometry, hCCR8 transfected CHOK1 cells
# human CCR8 [6] = biological target: T1, human CCR8; assay: flow cytometry, HUT78 cells (native CCR8)
# Protocol: The same staining protocol was applied on human CCR8 transfected CHO cell line versus wild type CHO cell line, cutaneous T cell lymphoma HUT78 cell line and human activated T cell model.
# (§2) Briefly, 1·10⁵ cells per well in a 96 well plate were incubated with a dilution of unconjugated anti-CCR8 mAb at 10 μg/mL then diluted at 1/3.33, 4 dilution points (during 30 min at 4° C.). […] To determine EC50 value, 8 concentrations of anti-CCR8 mAb were tested. Unbound antibodies were washed away with PBS (Invitrogen by Thermofisher Scientific, Illkirch-Graffenstaden, France) supplemented by 2% Fetal Bovine Serum (Invitrogen by Thermofisher Scientific, Illkirch-Graffenstaden, France) and 2 mM EDTA (Invitrogen by Thermofisher Scientific, Illkirch-Graffenstaden, France). Subsequently, cells are centrifuged (5 min at 400 g) and bound antibody is detected with F(ab′)₂-Goat anti-Mouse IgG (H+L) Cross-Adsorbed Secondary Antibody, Alexa Fluor 488 (dilution 1/500) (Invitrogen by Thermofisher Scientific, Illkirch-Graffenstaden, France) or with F(ab′)₂-Goat anti-Human IgG Fc Secondary Antibody, PE (Invitrogen by Thermofisher Scientific, Illkirch-Graffenstaden, France) (dilution 1/1000) at 4° C. for 30 min. Detection reagent is washed away and cells are centrifuged (5 min at 400 g) and resuspended in 30 μL PBS. Bound detection antibody is quantified on a MacsQuant16 (Miltenyi, Gladbach, Germany) (B1 or B2 channel, 5000 events per acquisition).
# CCR8 SNAP-tag = CCR8 SNAP-tag (human, UniProt P51685 1-355, SNAP-tag labelled with Lumi4-Terbium); assay: cell-based or functional assay
# pm2 [7] = biological target: T2, pm2 (human, sulfated tyrosine(s) among Tyr 15, Tyr 16, Tyr 17; marked only by underlining, lost in the text); assay: ELISA on coated peptide [cont.]
# T2 sequence (peptide, as listed by the source): as above
# Outline: as §1
# pwt1 = biological target: T3, pwt1 (human); assay: ELISA on coated peptide [cont.]
# T3 construct: also called unmodified peptide
# T3 sequence (peptide, as listed by the source): as above
# Outline: as §1
# pm4 [8] = biological target: T4, pm4 (human, sulfated tyrosine(s) among Tyr 15, Tyr 16, Tyr 17; marked only by underlining, lost in the text); assay: ELISA on coated peptide [cont.]
# T4 sequence (peptide, as listed by the source): as above
# Outline: as §1
# pm1 [9] = biological target: T5, pm1 (human, sulfated tyrosine(s) among Tyr 15, Tyr 16, Tyr 17; marked only by underlining, lost in the text); assay: ELISA on coated peptide [cont.]
# T5 sequence (peptide, as listed by the source): as above
# Outline: as §1
# pm2 [10] = biological target: T2, pm2; assay: ELISA on coated peptide
# Protocol: (§3) The specific binding properties of antibodies were evaluated by ELISA with coated CCR8 related peptides (500 ng/mL) in carbonate/bicarbonate buffer. Different peptides were used as described in Table 1 (see Example 1). Each anti-CCR8 mAb was tested at 1 μg/mL then diluted at 1/10. After an incubation at room temperature during 90 min, unbound mAbs were removed by washings. […] After washings, 3,3′,5,5′-tetramethylbenzidine (TMB) (Interchim, Montlugon, France) was added for 15 min. Then the optical density (OD) was determined by using a multiplate reader (Tecan, Lyon, France) and correlated with mAb reactivity on the panel of coated peptides.
# pm4 [11] = biological target: T4, pm4; assay: ELISA on coated peptide
# Protocol: as §3
# pm1 [12] = biological target: T5, pm1; assay: ELISA on coated peptide
# Protocol: as §3
# human CCR8 [13] = biological target: T1, human CCR8; assay: flow cytometry, human activated T cells pre-incubated with 200 nM hCCL1
# Protocol: as §2
# (§4) Binding characteristics of anti-CCR8 mAb cellular reactivity was further investigated by testing their binding to activated T cells.
# human CCR8 [14] = biological target: T1, human CCR8; assay: competition HTRF on HEK-293 cells with hCCR8; blocked ligand CCL1-AF647 [cont.]
# human CCR8 [15] = biological target: T1, human CCR8; assay: flow cytometry, human activated T cells
# Protocol: as §2, §4
binder,measurement,setting,value
B1,"Top plateau value (% of hCCL1 100 nM) with 5 µg/mL mAb, Protocol #3",human CCR8 [1],149%
same,IC50 (read off the curve),human CCR8 [2],~0.3 µg/mL
same,"IC50 (Gi2 BRET, pH 6.5)",human CCR8 [3],0.019 µg/ml and 0.125 nM
same,"IC50 (Gi2 BRET, pH 7.4)",human CCR8 [3],0.011 µg/ml and 0.075 nM
same,"hCCL1 (100 nM) residual response, Protocol #2, mAb 0.08 µg/mL",human CCR8 [4],60%
same,"hCCL1 (100 nM) residual response, Protocol #2, mAb 0.4 µg/mL",human CCR8 [4],35%
same,"hCCL1 (100 nM) residual response, Protocol #2, mAb 10 µg/mL",human CCR8 [4],21%
same,"hCCL1 (100 nM) residual response, Protocol #3, mAb 0.05 µg/mL",human CCR8 [4],69%
same,"hCCL1 (100 nM) residual response, Protocol #3, mAb 0.5 µg/mL",human CCR8 [4],39%
same,"hCCL1 (100 nM) residual response, Protocol #3, mAb 5 µg/mL",human CCR8 [4],38%
same,binding result,pm6,binds
same,binding result,pm3,binds
same,binding result,pm8,binds
same,binding result,pm5,binds
same,% positive cells,human CCR8 [5],64.7%
same,MFI fold change to isotype ctrl,human CCR8 [5],5.63 fold
B2,% of labelled cells,human CCR8 [6],88%
same,EC50,human CCR8 [6],0.2 nM
same,% of internalization at 1 µg/ml mAb (HTRF),CCR8 SNAP-tag,44%
same,% of internalization at 10 µg/ml mAb (HTRF),CCR8 SNAP-tag,36%
same,"IC50 (Gi2 BRET, pH 6.5)",human CCR8 [3],0.018 µg/ml and 0.117 nM
same,"IC50 (Gi2 BRET, pH 7.4)",human CCR8 [3],0.034 µg/ml and 0.224 nM
same,"hCCL1 (100 nM) residual response, Protocol #2, mAb 0.08 µg/mL",human CCR8 [4],77%
same,"hCCL1 (100 nM) residual response, Protocol #2, mAb 0.4 µg/mL",human CCR8 [4],66%
same,"hCCL1 (100 nM) residual response, Protocol #2, mAb 10 µg/mL",human CCR8 [4],41%
same,"hCCL1 (100 nM) residual response, Protocol #3, mAb 0.05 µg/mL",human CCR8 [4],73%
same,"hCCL1 (100 nM) residual response, Protocol #3, mAb 0.5 µg/mL",human CCR8 [4],52%
same,"hCCL1 (100 nM) residual response, Protocol #3, mAb 5 µg/mL",human CCR8 [4],37%
same,binding result,pm6,binds
same,binding result,pm2 [7],binds
same,binding result,pm3,binds
same,binding result,pwt1,binds
same,binding result,pm4 [8],binds
same,binding result,pm8,binds
same,binding result,pm5,binds
same,binding result,pm1 [9],binds
B3,"Top plateau value (% of hCCL1 100 nM) with 5 µg/mL mAb, Protocol #3",human CCR8 [1],2880%
same,IC50 (read off the curve),human CCR8 [2],~0.7 µg/mL
same,"IC50 (Gi2 BRET, pH 6.5)",human CCR8 [3],0.678 µg/ml and 4.52 nM
same,"IC50 (Gi2 BRET, pH 7.4)",human CCR8 [3],3.43 µg/ml and 22.9 nM
same,"hCCL1 (100 nM) residual response, Protocol #3, mAb 0.05 µg/mL",human CCR8 [4],102%
same,"hCCL1 (100 nM) residual response, Protocol #3, mAb 0.5 µg/mL",human CCR8 [4],98%
same,"hCCL1 (100 nM) residual response, Protocol #3, mAb 5 µg/mL",human CCR8 [4],84%
same,binding result,pm6,binds
same,binding result,pm3,binds
same,binding result,pm8,binds
same,binding result,pm5,binds
same,% positive cells,human CCR8 [5],76.2%
same,MFI fold change to isotype ctrl,human CCR8 [5],8.37 fold
B4,% of labelled cells,human CCR8 [6],23%
same,binding result,pm2 [10],binds
same,binding result,pm4 [11],binds
same,binding result,pm1 [12],binds
same,% of labelled cells,human CCR8 [13],64%
same,"IC50 (Gi2 BRET, pH 6.5)",human CCR8 [3],0.018 µg/ml and 0.117 nM
same,"IC50 (Gi2 BRET, pH 7.4)",human CCR8 [3],0.029 µg/ml and 0.194 nM
same,IC50 (read off the curve),human CCR8 [14],~0.1 µg/mL
same,"hCCL1 (100 nM) residual response, Protocol #2, mAb 0.08 µg/mL",human CCR8 [4],62%
same,"hCCL1 (100 nM) residual response, Protocol #2, mAb 0.4 µg/mL",human CCR8 [4],38%
same,"hCCL1 (100 nM) residual response, Protocol #2, mAb 10 µg/mL",human CCR8 [4],30%
same,"hCCL1 (100 nM) residual response, Protocol #3, mAb 0.05 µg/mL",human CCR8 [4],94%
same,"hCCL1 (100 nM) residual response, Protocol #3, mAb 0.5 µg/mL",human CCR8 [4],63%
same,"hCCL1 (100 nM) residual response, Protocol #3, mAb 5 µg/mL",human CCR8 [4],39%
same,% of labelled cells,human CCR8 [15],79%
same,binding result,pm6,binds
same,binding result,pm3,binds
same,binding result,pm8,binds
same,binding result,pm5,binds
